Assays:
[1] = biological target: affinity purified antibody IHuP#002-001-ABL-08; assay: ECL bridging/competition assay, 10 ug/ml ISV with 400 ng/ml analytical antibody; competitor of labelled ISV
[2] = biological target: serum sample IHUS#B09032311A1; assay: ECL bridging assay, drug displacement; competitor of labelled ISV SEQ ID NO:1
[3] = biological target: antibodies against ISV in serum sample IHUS#B09032311A3; assay: as above
[4] = biological target: antibodies against ISV in serum sample IHUS#B09032311A20; assay: as above

% reduction [1] [%] | ECLU confirmatory assay [1] [ECLU] | % reduction [2] [%] | ECLU confirmatory assay [2] [ECLU] | % reduction [3] [%] | ECLU confirmatory assay [3] [ECLU] | % reduction [4] [%] | ECLU confirmatory assay [4] [ECLU] | Binder
91.4 | 251 | 6 | 58 | 90 | 228 | 97 | 570 | Example 1C: (A14P,R39Q,K83R,T91Y,Q108L) (VHH) VHH: EVQLVESGGGLVQPGGSLRLSCAASGRTFNNYAMGWFRQAPGKEREFVAAITRSGVRSGVSAIYGDSVKDRFTISRDNAKNTLYLQMNSLRPEDTAVYYCAASAIGSGALRRFEYDYSGQGTLVTVSS
89.1 | 319 | 8 | 57 | 93 | 156 | 97 | 628 | Example 1C: (A14P,K83R,Q108L) (VHH) VHH: EVQLVESGGGLVQPGGSLRLSCAASGRTFNNYAMGWFRRAPGKEREFVAAITRSGVRSGVSAIYGDSVKDRFTISRDNAKNTLYLQMNSLRPEDTAVYTCAASAIGSGALRRFEYDYSGQGTLVTVSS

Reference: EP4350345A2
